Assay: yeast display, Sf9 membrane polyspecificity reagent, FACS + sequencing; frameworks hold sequencing errors
Procedure, shortened: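 A synthetic nanobody library was expressed on Saccharomyces cerevisiae BJ5465 by galactose induction for 36–48 hours. The library was stained for 1 hour at 4 °C with 10% biotinylated, detergent-solubilized Sf9 membrane reagent and enriched with streptavidin microbeads before FACS. Low and high (top ~1%) gates were set on anti-HA fluorescence for expression and streptavidin fluorescence for reagent binding, and each polyreactivity label reflects the gate of origin.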

Sequence | polyreactivity (PSR sort gate)
QVQLVESGGGLVQAGGSLRLSCAASGFTFKYYVKGWYRQAPGKERELVAAISSNGGTTYYADSVKGRFTISRDNAKNTVYVQMNSLKPEDTAVYYCAAEPGQEYVVGYSYWGQGSQVTVSS | high polyreactivity
QEQLVESGGGLVQAGGSLRLSCAASGSIRYYAMGWDRQAPGKESELVATITRGGSTYYADSVKGRFTISRDNAKNTVYLQMNSLKPEDTAVYYCAARRAVRVGYYWHDISSYDYWGQGTQVTVSS | low polyreactivity
QVQLVESGGGLVQAGGSLRLSCAASGRTFGSYAMGWYRQAPGKERELVAAISYRGSTYYADSVKGRFTISRDNAKNTVYLQMNSLKPEDTAVYYCAARSYGGYGYWGQGTQVTVSS | high polyreactivity
QVQLVESGGGLVQAGGSLRLSCAASGSTFVVNVMGWYRQAPGKERELVAAITYRSGSTYYADSVKGSFTISRDNAKNTVYLQMNSLKPEDTAVYYCAAGYYSRYYVAFEYYYWGQGTQVTVSS | high polyreactivity
QVQLVESGGGLVQAGGSLRLSCAASASIFYYYAMGWYRQEPGKERELVAALSDSGSTNYADSVKGRFTISRDNAKNTVYLQLNSLKPEDTAVYYCAAGFGSRRYRGVYYKMYYRGQGTQVTVSS | high polyreactivity
QVHLVESGGGLVQAGGSLRLSCAASGRIFHYYMVWYTQAPGKERELVAVISSGDGTYYADSVKRRFTISRDNAKNTVYLQMNSLKPEDTAVYYCAADAPREYVDHYKYDDDYWGQGTQETVSS | low polyreactivity
QVQLVESGGGLVQAGGSLRLSCAASGRIFPWNTMGWYRQAPGKERELVAGINNGDRTYYADSVKGRFTISRDNENNTVYLQMNSLKPEDTAVYYCAARSPPSAYTYTTWEYDYWGQGTQVTVSS | low polyreactivity
QVQLVESGGGLVQAGGSLRLSCAASGIIFSDYAMGWYRQAPGKERELVAAITGGGSTYYADSVKGRFTISRDNAKKTVDLQMNSLKPEDTAVFYCNADWARLWIRSTEVDYWGQGSQVTVSS | low polyreactivity
QVQLVESGGGLVQAGGSLRLSCAASGSNFNRYAMGWYRQAPGKERELVAAITSTGGTNYADSVKGRFTISLDNAKNSVYLQMNSLKPEDTAVYYCAKRWLRWRSNYWGQVTQVTVSS | high polyreactivity
QVQLVESGGGLVQAGGSLRLSCAASGSTLKLNAMGWYRQAPGKERELVAAITRSGGSTYYADSVKGRFTISRDNAKNTVYLQMNSLKPEDTAVYYCAADVLWDEFGYWGQGTQVTVSS | low polyreactivity
QVQLVESGGGLVQAGGSLRLSCAASGSILRRYAMGWYRQAPWKERELVAAITSSGGGTYYADSVKGRFTISRDNAKNTVYLQMKSLKPEVTAVYYCAAEYGWLYEYDYWGQGTQVTVSS | high polyreactivity
QVQLVESGGGLVQSGGSLRLSCAPSGRIFAGYTMGCYRQAPGKERELVAAISWSGGRTYYADSVKGRFTISRDNAKNTVYLQMNSLKPEDTAVYYCAVGFRTLHGDYGYWGQGTQVTVSS | high polyreactivity
QDQLVETGVGLVQAGGSLLLSCAPSAITFRGYAMGWYRQAPGKEREYVAAITSGSSTYYADSVKGRFTISRDNAKNTVYLQMNSLKPEDTAVYYCAAERTKSFKLTRPGSMDYWGQGTQVTVSS | low polyreactivity
QVQLVESGGGLVQAGGSLRLSCCASGRTFLDNALGWYRQAPGKERQLVAAISGGGGTYYADSVKGRFTISRDNAKNTVYLQMNSLKPEDTAVYYCATDRGHKWVFYVTYYRYESWGQGTQVTVSS | low polyreactivity
QVQLVESGGGLVQAGGSLRLSCASSGFTFRLNAMGWYRQAPGKERELVAAITRSGGNTYYADSVKGRFTISRDNAKNTVYLQMNSLKPEDTAVYYCAVRQLDRRSPKYNYWGQGTQVTVSS | high polyreactivity
QVQLVESGGGLVQAGGSLRLSCAASGLTLDYYAMGWSRQGPGKERELVAVIRGRSGSTYYADSVKGRFTISRDNAKNTDYLQMNSLKPEDTAVYYGARVTTYGDYYWGQGTQVTVSS | high polyreactivity
QVQLVESGGGLVQAGGSLRLSCAASGSIFFDYGMGWYRQAPGKERELVATITRGTGSTYYADSVKGRFTISRDNAKNTVYLQMNSLKPEDTAVYYCAAGWHYVYRTPGFGYWGQGTQVTVSS | high polyreactivity
QVQLVESGGGLVQAGGSLRLSCAASGGTFAYYAMGWYRQAPGKERELVAVISRRGTSTYYADSVKGRFTISRDNAKNTVYLQMNSLKPEDTAVYYCNARTWDHPYGYWGQGTQVTVSS | high polyreactivity
QVQLVESGGGLVQAGGSLRLTCAASGIIFRLNAMGWYRQAPGKERELVAAIRRRGGSTYYADSVKGRFTISRDYAKNTVYLQMNSLKPADTAVYYCAKEPDGSDFGYWGQGTQVTESS | low polyreactivity
QVQLVESGGGLVQAGGSLRLSCAASGLTFYYYAMGWYRQAPGKEREFVAAISRSGGTTYYADSVKGRFTISRDNAKNTVYLQMISLKPEDTAVYYCNAQWWRYWPSQVIFDYWGQGTQVTVSS | high polyreactivity
QVQLVESGGGLVQAGGSLLLSSAASGRTFWMYAMGWNRQAPGKESELVAGITWRGGSTYYADSVKGRFTISRDIAKNTVYLQMNSQKPEDTAVYYFAAEFWVSRSIWVYYYWGQGTQVTVSS | high polyreactivity
QFQLVESGRGLVQAGGSLRLSCAASGNTFGPYAMGWYRQAPGKERELVAAISSGGSTNYADSVKGRFTISRDNAKNTVYLQMNSLKPEDTAVYYCAAPYRSYVRYKYDYWGQGTLVTVSS | low polyreactivity

Sequence | polyreactivity (PSR sort gate)
QVQLVDSGGGLVQAGGSLRLSCSASGSILGAYAMGWYRQSPGKERELVASISWSGGSTYYADSVKGRFTISRDNAKNTVYLQMNSLKPEDTAGYYCAASGIRYWLPYDYWGQGTQVTVSS | high polyreactivity
QVQLVESGGGLVQAGGSLRLSCAASGRIFYPYAMGWYRPAPGKERELVAAITVRGGRTYYADSVKWRFTISRDNAKNTVYLQMNSLKPEDTAVYYCNAVIGWYIGSRTYPHGPLQYDYWGQGTQVTLSS | high polyreactivity
QVQLVESGGGLVQAGGSHRLSCAASGRTFSTYSMGWYRQAPGKERELVAAISSGGGRTYYADSVKGRFTISRDIAKNTVYLQINSLKPEDTAVYDGAADRYFRSRRSYEYWGQGTQVTVSS | low polyreactivity
QVQLVDSGGRLVQAGGRLRLTCAASGFILSYNMGWYRQAPGKERELVATISYNDVSTYYADSVKGRFTISRDNAKNTVYLQMNSLKPEDTAVDYCNAQFPIITRRGYDYWGQGTQVNVSS | high polyreactivity
QVQLVESGGGLVQAGGSLRLSCAASGSIFSGNVMGWYRQAPGKERELVAAISGRGGSTYYADSVKGRFTISRDNAKNTVYLQMNSLKPEDTAVYYCAAVYLKTYYWGQGTQVTVSS | high polyreactivity
QVQLVESGGGLVQAGGSLRLSCAASGRIFGVYVMGWYRQAPGKEREFVAAITWSGGRTYYADSVKGRFTISRDNAKNTVYLQMNSLKPEDTAVYYCAARRRYEYDYWGQGTQVTVSS | high polyreactivity
QVQLVESGGGLVQAGGSLRLSCAASGSIFYYYTMGWYRQAPGKERELVAAITWSGSTYYADSVKGRFTISRDNAKNTVYLQMNSLKPEDTAVYYCNADALIAAYKYFPYTYRFNYWGQGTQVTVSS | low polyreactivity
QVQLVESGGGLVQAGGSLRLSCAASGRIFNDYAMGWYRQAPGKERELVAVIRRSGVSTYYADSVKGRFTISRDNAKNTVYLQMNSLKPEDTAVYYCAADIRSNRLYDGGYWGQGTQVTVSS | low polyreactivity
QVQLVESGGGLVQAGGSLRLSCAASGSTFGQYAMGWYRQAPGKERELVATISSGSTYYADSVKGRFTISRDNAKNTVYLQMNSLKPEDTAVYYCAATRRWYKSKKTFYYWGQGTQVTVSS | high polyreactivity
QVQLVESGGGLVQAGCSLRLICAASGIIFRRYAMGWYRQAPGKERELVAAISSSGGSTYYADSVKGRFTISRDNAKNTVYLQMNSLKPEDTAVYYCNAVTSVQARPRNYYYWGQGTQVTVSS | high polyreactivity
QVQLVESGGGLVQAGGRLRLSCAASGFIFRAYAMGWYRQAPGKERELVAAISRGGGTYYADSVKGRFTISRDNAKNTVYLQMNSLKPEDTAVYYCAVDLLRRGFTTVVTTYDYWGQGTQVTVSS | high polyreactivity
QFQLVESGGGLVQAGGSLRLSCAASGLTFVAYAMGWYRQAPGKEMELVAAITRRGGSTYYADSVKGRFTISRDNEKNPVSLQMNSLKPEDTAVYYCAAEGWYSRNPGFDYWGQGTQVTVSS | high polyreactivity
QVQLVESGGGLVQAGGSLRLSCAASGSILADYAMGWYRQGPGKERELVAGISSGGSTNYADSVKGRFTITGDNAKNTVSLQMNSLKPEDTAVYYCNADQDFLFIGYLFDYWGQGTQVTVSS | low polyreactivity
QVQLVESGGGLVQAGRSLRLICAASGFTSHVYAMGWYRQAPGKERELVAAISSGSSTYYADSVKGRFTISRDNAKNTVYLQRNSLKPEDTAVYYCATTHKTLRRYESWGQGTQVTVSS | low polyreactivity
QVQLVESRGGLVQAGGSLRLSCAASGSTFPGYAMGCYRQAPGKERELVAAISRSGGSTSYADSVKGRFTISRDKAQNTVYLQLHSLKPEDTEVYYCAAQVQGTSRAKQRGGIGELDYWGQGTQVTVSS | low polyreactivity
QVQLVESGGGLFQAGGSLRLSCAASGNTFRRNTMGWYRQAPPKERELVATISWRGGKTFYADSVKGRFTISRDNAKNTVYLQMNSLKPEDTAVYYCAADTRTQTYIYGYWGQGTQVTVSS | high polyreactivity
QVQLVESGGGLVQAGGSLRLSCAASGSTFEPNAMGWYRQAPGKERELVAAIDTDASTYYADSVKGRFTISRDNAKNTVYLQMNSLKPEDTAVYYCAADYYIAITYYDGDDYWGQGTQVTVSS | low polyreactivity
QVQLQESGGGLVQAGGDLRLSCAASGNIFLDYIMGWYRQAPGKEREFVAGIDRGANTNYADSVKGRFTISRDNAKNTLYLQMNSLKPEDTAVYYCAVHTAIVPDFIYWGQGTEVTVSS | low polyreactivity
QVQLVESGGGLVQAGGSLRLSCAASGSTFWFYAMGWYRQAPGKERELVATITIGGRTYADSVKGRFTISRDNAKNTVYLQMNTLKPEDTAVYYCAARRGRLEYVNGRYDYWGQGTQVTVSS | low polyreactivity
QVQLVESGGGLVQAGGSLRLSCAASGRIFGYYAMGWYRQAPGKERELVAAISYTGGSTYYADSVKGRFTISRDNAKNTVYLQMNSLKPEDTAVYYCAAKHYKRLDYWGQGTQVTVSS | high polyreactivity
QVQLVESGGGLVQAGGSLRLSCAASGITFRGYAMGWYRQAPGKERELVASITNTDSTYYADSVKGRFTISRDNAKNTVYLQMNSLKPEDTAVYYCNAEADPYSVDYDYWGQGTQVTVSS | high polyreactivity

Reference: the nanobody polyreactivity screen of Harvey et al. (2022)
